Values quoted from earlier work, collected in article PMC3039444.

Molecular target: Ube2g2 (Homo sapiens) (UniProt P60604)
Sequence of UniProt P60604 (P60604 2-165): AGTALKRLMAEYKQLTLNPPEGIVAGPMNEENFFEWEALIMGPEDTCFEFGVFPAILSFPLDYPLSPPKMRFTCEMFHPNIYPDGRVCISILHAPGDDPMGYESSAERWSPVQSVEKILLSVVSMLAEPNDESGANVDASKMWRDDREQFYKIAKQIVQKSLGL

- Kd: 21 nM
Substance: gp78 G2BR (from UniProt Q9UKV5)
